Test results from patent US20230002480A1.

Assays:
Assay in all cases: cell-based or functional assay
[1] = biological target: HIV-1 Env of pseudovirus 235-47 (clade CRF02_AG) (HIV-1)
[2] = biological target: HIV-1 Env of pseudovirus C2101.c01 (clade CRF01_AE) (HIV-1)
[3] = biological target: HIV-1 Env of pseudovirus C3347.c11 (clade CRF01_AE) (HIV-1)
[4] = biological target: HIV-1 Env of pseudovirus P0402_c2_11 (clade G) (HIV-1)
[5] = biological target: HIV-1 Env of pseudovirus R2184.c04 (clade CRF01_AE) (HIV-1)
[6] = biological target: HIV-1 Env of pseudovirus T278-50 (clade CRF02_AG) (HIV-1)
[7] = biological target: HIV-1 Env of pseudovirus X1254_c3 (clade G) (HIV-1)
[8] = biological target: HIV-1 Env of pseudovirus 1012_11_TC21_3257 (clade B (T/F)) (HIV-1)
[9] = biological target: HIV-1 Env of pseudovirus 249M B10 (clade C (T/F)) (HIV-1)
[10] = biological target: HIV-1 Env of pseudovirus 6240_08_TA5_4622 (clade B (T/F)) (HIV-1)
[11] = biological target: HIV-1 Env of pseudovirus 6535.3 (clade B) (HIV-1)
[12] = biological target: HIV-1 Env of pseudovirus CNE19 (clade BC) (HIV-1)
[13] = biological target: HIV-1 Env of pseudovirus CNE21 (clade BC) (HIV-1)
[14] = biological target: HIV-1 Env of pseudovirus Du156.12 (clade C) (HIV-1)
[15] = biological target: HIV-1 Env of pseudovirus MS208.A1 (clade A) (HIV-1)
[16] = biological target: HIV-1 Env of pseudovirus Q23.17 (clade A) (HIV-1)
[17] = biological target: HIV-1 Env of pseudovirus Q259.d2.17 (clade A) (HIV-1)
[18] = biological target: HIV-1 Env of pseudovirus REJO4541.67 (clade B) (HIV-1)
[19] = biological target: HIV-1 Env of pseudovirus ZM135M.PL10a (clade C) (HIV-1)
[20] = biological target: HIV-1 Env of pseudovirus ZM233M.PB6 (clade C) (HIV-1)
[21] = biological target: MuLV envelope (negative control pseudovirus) (MuLV)

For 10-1074 (antibody), the IC50, titer in TZM.bl cells [1] was 0.05 µg/mL, the IC80, titer in TZM.bl cells [1] was 0.163 µg/mL and the IC50, titer in TZM.bl cells [2] was > 50 µg/mL. For the same substance, the IC80, titer in TZM.bl cells [2] was > 50 µg/mL, the IC50, titer in TZM.bl cells [3] was > 50 µg/mL and the IC80, titer in TZM.bl cells [3] was > 50 µg/mL. For the same substance, the IC50, titer in TZM.bl cells [4] was 0.012 µg/mL, the IC80, titer in TZM.bl cells [4] was 0.039 µg/mL and the IC50, titer in TZM.bl cells [5] was > 50 µg/mL. The IC80, titer in TZM.bl cells [5] was > 50 µg/mL, the IC50, titer in TZM.bl cells [6] was 2.15 µg/mL and the IC80, titer in TZM.bl cells [6] was 18.3 µg/mL. It also gave an IC50, titer in TZM.bl cells [7] of 0.089 µg/mL and an IC80, titer in TZM.bl cells [7] of 0.297 µg/mL.
With N49P18.1 (antibody) the IC50 [8] was 16.1 µg/mL, the IC80 [8] was > 50 µg/mL and the MPI [8] was 79. For the same substance, the IC50 [9] was 5.71 µg/mL, the IC80 [9] was 23.1 µg/mL and the MPI [9] was 94. The IC50 [10] was 35.2 µg/mL, the IC80 [10] was > 50 µg/mL and the MPI [10] was 60. The IC50 [11] was 2.06 µg/mL, the IC80 [11] was 11.4 µg/mL and the MPI [11] was 100. For the same substance, the IC50 [12] was 2.34 µg/mL, the IC80 [12] was 9.64 µg/mL and the MPI [12] was 99. For the same substance, the IC50 [13] was 7.93 µg/mL, the IC80 [13] was 29.2 µg/mL and the MPI [13] was 95. The IC50 [14] was 1.88 µg/mL, the IC80 [14] was 6.81 µg/mL and the MPI [14] was 100. For the same substance, the IC50 [15] was 8.31 µg/mL, the IC80 [15] was 33.3 µg/mL and the MPI [15] was 88. The IC50 [16] was 1.16 µg/mL, the IC80 [16] was 6.93 µg/mL and the MPI [16] was 100. The IC50 [17] was > 50 µg/mL, the IC80 [17] was > 50 µg/mL and the MPI [17] was 37. For the same substance, the IC50 [18] was 4.08 µg/mL, the IC80 [18] was 30.1 µg/mL and the MPI [18] was 89. The IC50 [19] was > 50 µg/mL, the IC80 [19] was > 50 µg/mL and the MPI [19] was 46. The IC50 [20] was 38.4 µg/mL, the IC80 [20] was > 50 µg/mL and the MPI [20] was 57. For the same substance, the IC50 [21] was > 50 µg/mL, the IC80 [21] was > 50 µg/mL and the MPI [21] was 0.
With N49P7 (antibody) the IC50, neutralization titer in TZM.bl cells [21] was > 50 µg/mL, the IC80, neutralization titer in TZM.bl cells [21] was > 50 µg/mL and the MPI, neutralization in TZM.bl cells [21] was 9.
For N49P7.1 (antibody), the IC50, neutralization titer in TZM.bl cells [21] was > 50 µg/mL, the IC80, neutralization titer in TZM.bl cells [21] was > 50 µg/mL and the MPI, neutralization in TZM.bl cells [21] was 4.
In the case of PG9 (antibody), the IC50, titer in TZM.bl cells [1] is reported as 0.233 µg/mL, the IC80, titer in TZM.bl cells [1] is reported as 1.2 µg/mL and the IC50, titer in TZM.bl cells [2] is reported as 0.034 µg/mL. For the same substance, the IC80, titer in TZM.bl cells [2] was 0.099 µg/mL, the IC50, titer in TZM.bl cells [3] was 0.032 µg/mL and the IC80, titer in TZM.bl cells [3] was 0.113 µg/mL. The IC50, titer in TZM.bl cells [4] was 0.296 µg/mL, the IC80, titer in TZM.bl cells [4] was 2.37 µg/mL and the IC50, titer in TZM.bl cells [5] was 0.255 µg/mL. The IC80, titer in TZM.bl cells [5] was 1.24 µg/mL, the IC50, titer in TZM.bl cells [6] was 0.393 µg/mL and the IC80, titer in TZM.bl cells [6] was 3.19 µg/mL. For the same substance, the IC50, titer in TZM.bl cells [7] was 0.065 µg/mL and the IC80, titer in TZM.bl cells [7] was 0.304 µg/mL.
N49P11 (antibody) gave an IC50 [8] of 10.6 µg/mL, an IC80 [8] of 29.3 µg/mL and an MPI [8] of 100. For the same substance, the IC50 [9] was 3.54 µg/mL, the IC80 [9] was 12.9 µg/mL and the MPI [9] was 100. It also gave an IC50 [10] of 0.72 µg/mL, an IC80 [10] of 3 µg/mL and an MPI [10] of 100. For the same substance, the IC50 [11] was 8.22 µg/mL, the IC80 [11] was 17.2 µg/mL and the MPI [11] was 100. It also gave an IC50 [12] of 0.437 µg/mL, an IC80 [12] of 5.5 µg/mL and an MPI [12] of 100. The IC50 [13] was 7.4 µg/mL, the IC80 [13] was 21.9 µg/mL and the MPI [13] was 100. It also gave an IC50 [14] of 2.4 µg/mL, an IC80 [14] of 12 µg/mL and an MPI [14] of 100. The IC50 [15] was 0.259 µg/mL, the IC80 [15] was 1.94 µg/mL and the MPI [15] was 100. For the same substance, the IC50 [16] was 0.034 µg/mL, the IC80 [16] was 0.254 µg/mL and the MPI [16] was 100. It also gave an IC50 [17] of 8.42 µg/mL, an IC80 [17] of 21.4 µg/mL and an MPI [17] of 100. For the same substance, the IC50 [18] was 10.8 µg/mL, the IC80 [18] was 27.1 µg/mL and the MPI [18] was 100. It also gave an IC50 [19] of 3.97 µg/mL, an IC80 [19] of 16.6 µg/mL and an MPI [19] of 100. It also gave an IC50 [20] of 5.92 µg/mL, an IC80 [20] of 18.5 µg/mL and an MPI [20] of 100.
